{"source": "patent US6106844A", "about": "“Immunomodulatory peptides of vespid antigen 5” (The Rockfeller University, priority 1998, dated 2000)", "key": {"[1]": {"system": "r-Ag5 specific spleen cells from P/J mice", "test": "In vitro proliferation assay, spleen cells of r-Ag5-immunized P/J mice", "assay_type": "cell-based", "details": "spleen cells from mice immunized 5 times with rAg5; blank 1730 cpm", "description": "(§1) FIG. 12. Stimulation index profile of P/J mice spleens after 5 immunizations with r-Ag5. In vitro proliferation assays were performed with peptides at three concentrations: 1×10^-5 M (open bar), 1.25×10^-6 M (\"uphill\" hatch), and 1.56×10^-7 M (\"downhill\" hatch). The corresponding concentrations of recombinant Antigen 5 were 1.0 ×10^-6 M, 1.25×10^-7, and 1.56×10^-8 M. The blank was 1730 cpm.\n(§2) The peptides of the invention can be tested in a proliferation assay for T cell responses. Generally, lymphocytes from a sensitized host are obtained. The host can be a mouse that has been immunized with a vespid venom antigen 5, or with a crossreactive protein, such as testes specific protein. Using techniques that are well known in the art, T lymphocyte response to the peptide can be measured in vitro. In a specific embodiment, infra, T cell responses are detected by measuring incorporation of ^3 H-thymidine, which increases with DNA synthesis associated with proliferation. Cell proliferation can also be detected using an MTT assay [Mossman, J. Immunol. Methods, 65:55-63,(1983); Niks and Otto, J. Immunol. Methods, 130:140-151 (1990)]. […] Alternatively, mRNA for lymphokines can be detected, e.g., by amplification [see Brenner, et al., Biotechniques, 7:1096 (1989)] or in situ hybridization [see, e.g., Kasaian and Biron, J. Immunol., 142:1287 (1989)]. […]"}, "r-Dol m 5.02": {"target": "T1, r-Dol m 5.02 (Dolichovespula maculata, UniProt P10737)", "T1 construct": "made in house", "T1 sequence (P10737 11-215)": "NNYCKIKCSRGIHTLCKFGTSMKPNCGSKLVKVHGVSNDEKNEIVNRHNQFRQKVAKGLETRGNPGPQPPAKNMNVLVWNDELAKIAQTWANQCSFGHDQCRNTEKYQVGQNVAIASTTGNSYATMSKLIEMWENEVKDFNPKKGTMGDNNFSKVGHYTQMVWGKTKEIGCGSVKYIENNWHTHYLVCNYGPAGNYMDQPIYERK", "test": "Antibody response by direct ELISA of mice immunized with recombinant white faced hornet Ag5, wells coated with r-Dol m 5.02", "assay_type": "in vivo", "details": "for Half maximal Ab titer r-Dol m 5.02: week five sera after three i.p. immunizations with rDol m 5.02 and alum; for antibody responder status: alum as adjuvant", "description": "Antibody response in mice of different haplotypes to recombinant hornet Ag5. Five strains of mice were immunized with recombinant (r) white faced hornet Ag5 and alum as adjuvant. […] The antibody titers (the reciprocal of the dilution yielding 50% of maximum signal extrapolated from ELISA curves in wells coated with r-Dol m 5.02 or n-Dol m 5.01) of these sera for n-(natural) and r-Ag5 are given in Table 3.\n*Sera are from week five bleeding after three intraperitoneal\nimmunizations with 0.2 ml of 10 μg/ml rDol m 5.02 and alum (5 μg/ml\nin 0.05 m sodium phosphate buffer, pH 6.2, on weeks 0, 2, and 4."}, "[2]": {"system": "r-Ag5 specific spleen cells from C3H/He mice", "test": "In vitro proliferation assay, spleen cells of r-Ag5-immunized C3H/He mice", "assay_type": "cell-based", "details": "spleen cells from mice immunized 5 times with rAg5; blank 3130 cpm", "description": "as §1, with “13.” for “12.”, “C3H/He” for “P/J”, “1.0×10^-6” for “1.0 ×10^-6”, “3130” for “1730”\nas §2"}}}
{"molecule": "r-Ag5: recombinant white faced hornet (Dolichovespula maculata) antigen 5 form 2, Dol m 5.02 (protein) NNYCKIKCSRGIHTLCKFGTSMKPNCGSKLVKVHGVSNDEKNEIVNRHNQFRQKVAKGLETRGNPGPQPPAKNMNVLVWNDELAKIAQTWANQCSFGHDQCRNTEKYQVGQNVAIASTTGNSYATMSKLIEMWENEVKDFNPKKGTMGDNNFSKVGHYTQMVWGKTKEIGCGSVKYIENNWHTHYLVCNYGPAGNYMDQPIYERK", "values": [{"measurement": "Stimulation Index P/J", "setting": "[1]", "value": 20.8}, {"measurement": "Half maximal Ab titer r-Dol m 5.02", "setting": "r-Dol m 5.02; ASW/Sn mice (haplotype s)", "value": "1 × 10^5"}, {"measurement": "Half maximal Ab titer r-Dol m 5.02", "setting": "r-Dol m 5.02; BALB/c byj mice (haplotype d)", "value": "8 × 10^4"}, {"measurement": "antibody responder status", "setting": "r-Dol m 5.02; BALB/v byj, ASW/Sn, C3H/He, and P/J mice", "value": "high antibody responders"}, {"measurement": "Half maximal Ab titer r-Dol m 5.02", "setting": "r-Dol m 5.02; C3H/He mice (haplotype k)", "value": "6 × 10^3"}, {"measurement": "Half maximal Ab titer r-Dol m 5.02", "setting": "r-Dol m 5.02; C57B1/6 mice (haplotype b)", "value": "1 × 10^2"}, {"measurement": "antibody responder status", "setting": "r-Dol m 5.02; C57B1/6 mice", "value": "poor antibody responder"}, {"measurement": "Half maximal Ab titer r-Dol m 5.02", "setting": "r-Dol m 5.02; P/J mice (haplotype p)", "value": "2 × 10^4"}, {"measurement": "Stimulation Index C3H/He", "setting": "[2]", "value": 12.3}]}
